Measurements published in patent US7732563B2, “Cloning, sequencing and expression of a gene encoding an eukaryotic amino acid racemase, and diagnostic, therapeutic, and vaccination applications of parasite and viral mitogens” (priority 1999, dated 2010).

Columns and labels:
total spleen cells = experiment: In vitro proliferation assay of splenocytes (3H-thymidine uptake); assay type: cell-based, mouse
Protocol: Briefly, freshly recovered splenocytes from 8 week old male Balb/c mice seeded at a concentration of 5×10^4 cells/well were incubated for 24, 48 and 72 h in 5% FCS RPMI-1640 medium. A 16 h ^3H-thymidine pulse at 1 μCi/well was performed before harvesting. ^3H-Thymidine uptake was determined in a beta-plate liquid scintillation counter (LKB-Wallac). All points were done in triplicate and the corresponding standard deviation calculated. For comparison, ^3H-thymidine uptake after 48 h in the presence of ConA (10 μg/ml) and LPS (5 μg/ml) was 32000 c.p.m. and 3500 c.p.m., respectively. T-cell depletion was performed by incubating freshly recovered spleen cells for 30 min at 37° C. in the presence of anti-Thy 1.2 monoclonal antibody (Cedarlane) and rabbit complement (Cedarlane). In order to rule out a possible mitogenic effect due to LPS contamination in samples, proliferation assays were also performed on freshly recovered splenocytes from the LPS non-responder mouse strain C3H/Hej. Same levels of proliferation were verified. Balb/c mice were purchased from Charles River, France. C3H/Hej mice were maintained in our animal facilities.
In vitro proliferation is accomplished using freshly recovered splenocytes from BALB/c mice seeded at a density of 5×10^4 cells/well and incubated for 24, 48 and 72 h with increasing concentrations of total parasite supernatants or recombinant TcPa45 protein or other mitogen (0.07-200 μg/ml) with 0.5 μg/ml of the HPLC fractions, or with the conventionally used mitogens concanavalin A (10 μg/ml) and lipopolysaccharide (5 μg/ml) in 5% FCS in RPMI-1640 complete medium. T-cell depletion is accomplished by incubating freshly recovered spleen cells for 30 min. at 37° C. in the presence of monoclonal antibodies against Thy 1.2 and rabbit complement (Cedarlane, Le Perray en Yvelines, France). Analysis of proliferative activity of total splenocytes (5×10^4 cells/well) in the presence of 50 μg/ml enzymatically active rTcPA45 or other mitogen is also compared with the proliferation obtained using the same amounts of rTcPA45 protein or other mitogen lacking racemase activity (by heating for 10 min. at […] or by long term storage at 4° C.). Inhibition of proliferation is obtained by adding to the splenocyte cultures 50 μg/ml rTcPA45 or other mitogen pre-incubated for 10 min. at 37° C. with 1 mM inhibitor, either specific (pyrrole-2-carboxylic acid) or nonspecific (iodoacetamide or iodoacetate). Competitive assays of proliferative activity by 50 μg/ml rtcPA45 or other mitogen are done by adding increasing concentrations of specific substrates i.e., proline racemase substrates (L- or D-proline) for the mitogen rTcPA45 ranging from 3 mM to 50 mM. Controls include the incubation of splenocytes (5×10^4 cells/well) with substrate alone, i.e., 50 mM L- or D-proline in RPMI medium alone for prline racemase. Cultures are collected after a 16-hour pulse or 1 μCi/well ^3H-thymidine uptake was determined in a beta-plate liquid scintillation counter (LKB-Wallac, Orsay, France). All data points are obtained in triplicate and the corresponding standard deviation is calculated.
5×10^5 naive spleen cells/well (96 well plate) were stimulated in vitro with different doses of rTcPA45 (ranging in FIG. 4b from 0.8 to 200 μg/ml final) for 24, 48 and 72 h, at 37° C., 5% CO2. Cultures were pulsed with ^3H-Thymidine (1 μCi/well) for 16-18 h before harvesting. ^3H-thymidine incorporation was obtained after counting using a beta-plate. Results present arithmetic means of c.p.m. (counts/minute) from 6 wells/dose of rTcPA45 or wells containing medium alone (+/−SD of the means). (FIG. 4b)

Trypanosoma cruzi = experiment: rTcPA45 sub-mitogenic immunization followed by infective challenge, parasitemia; assay type: in vivo
Protocol: FIG. 14B. rTcPA45 injection. 6 week old BALB/c mice were injected intraperitoneally (i.p.) with 10 ηg of rTcPA45 and then boosted i.p. one week later with 50 μg of rTcPA45. Mice were challenged 1 week after the boost with 10^4 infective forms of the parasite/mouse, and the parasitemia was scored during 30 days.
As with classical B cell mitogens, rTcPA45 mitogenicity is dose-dependent (FIG. 1). As for classical B cell mitogens, mouse specific immune responses directed to mitogenic rTcPA45 is indeed possible (Western blot FIG. 12) following a protocol of immunization which consisted of with 1 injection (i.p.) of a sub-mitogenic (10 ng/mouse) dose of the protein followed by an additional boost with a mitogenic dose of rTcPA45 (50 μg/mouse) one week later.
These additional results do support the claim that mitogenic moieties are potential targets for vaccination approaches against Trypanosoma cruzi infection. (See FIG. 14(b).)

[1] = test system: spleen cells / Ig-producing B cells; experiment: Mitogenicity of rTcPA45 in vivo assessed by ELISPOT; design: species or system mouse
Protocol: BALB/c mice were injected or not with 50 μg of rTcPA45 (i.p.), and spleen cells assayed day 7 after injection. Results represent total numbers of spleen cells, total number of B cells producing IgM, IgG2a, or IgG2b isotypes, and total numbers of isotype-producing B cells specific of the protein.
Mice were injected or not with 50 μg of iTcPA45 (i.p.). […] Numbers of Ig-secreting cells (total or specific to rTcPA45) were determined by Elispot assay, as follows:
Flat bottomed 96 well ELISA plates, were coated with either goat anti-mouse Ig or with rTcPA45 and incubated at 4° C. overnight. Plates were blocked with PBS-gelatin, washed with PBS-Tween and with RPMI medium. 100 μl of different spleen cell concentrations per well (in RPMI containing 2% FCS) were incubated for 8 hours at 37° C., 5% CO2. A row in the plate containing serial dilutions of purified immunoglobulin (IgM, IgG2a, or IgG2b) was used as standard. After lysis of the cells with H20-Tween, plates were then washed with PBS-Tween and incubated with respective biotin-labeled antibodies directed to (IgM, IgG2b, or IgG2a isotypes), overnight at 4EC. After washing, plates were incubated for 45-60 minutes with avidin-alkaline phosphatase and further incubated with substrate (2-amino-2-methyl-propanol buffer containing BCIP) 2-4 hours, 37° C. (until the spots are “dark” blue). Spots correspond to immunoglobulin-producing B-cell (of a particular isotype) directed to the coated antigen (here: goat anti-mouse immunoglobulins or rTcPA45). Spots are then counted and numbers corrected to total number of spleen cells according to the dilution. (See Table I and FIG. 7.)

[2] = spleen lymphocytes, up to 72 h culture
[3] = BALB/c mice, 50 μg/mouse i.p., 7 days after injection

B1: rTcPA45: recombinant T. cruzi polyclonal activator 45, B-cell mitogen and proline racemase, codons 30-423 with C-terminal 6×His tag, from E. coli (protein)
chain: RTGQEKLLFDQKYKIIKGEKKEKKKNQRANRREHQQKREIMRFKKSFTCIDMHTEGEAARIVTSGLPHIPGSNMAEKKAYLQENMDYLRRGIMLEPRGHDDMFGAFLFDPIEEGADLGMVFMDTGGYLNMCGHNSIAAVTAAVETGIVSVPAKATNVPVVLDTPAGLVRGTAHLQSGTESEVSNASIINVPSFLYQQDVVVVLPKPYGEVRVDIAFGGNFFAIVPAEQLGIDISVQNLSRLQEAGELLRTEINRSVKVQHPQLPHINTVDCVEIYGPPTNPEANYKNVVIFGNRQADRSPCGTGTSAKMATLYAKGQLRIGETFVYESILGSLFQGRVLGEERIPGVKVPVTKDAEEGMLVVTAEITGKAFIMGFNTMLFDPTDPFKNGFTLKQ
modifications: left off: small tags and cut ends
Q: For B1, which “mitogenic activity of inactivated rTcPA45” value (total spleen cells; inactivated by being heated or by long storage at 4° C.) is on record?
A: abolished

Q: And the “concentration at which proliferation peaks (bell-shaped dose-response curve)” value (total spleen cells; [2])?
A: 50 µg/mL

Q: And the “concentration from which proliferation starts (bell-shaped dose-response curve)” value (total spleen cells; [2])?
A: 0.8 µg/mL

Q: And the parasitemia control (Trypanosoma cruzi; BALB/c mice, 10 ng i.p. then boost 50 μg i.p. one week later, challenge 10^4 parasites/mouse)?
A: 90-95%

Q: And the “parasitemia control compared with DNA vaccination (85% decrease)” value (Trypanosoma cruzi; sub-mitogenic doses of active rTcPA45 intraperitoneally 2 weeks before infective challenge)?
A: even higher levels of parasitemia control

Q: What about the “Ig-secreting B cells directed to TcPA45” value ([1]; 50 μg rTcPA45 i.p., day 7) of the same molecule?
A: complete lack

Q: What about the “IgM secreting cells directed to the injected protein” value ([1]; 50 μg rTcPA45 i.p., day 7) of the same molecule?
A: less than 0.5%

Q: And the “increase in total numbers of Ig-secreting B cells (IgM, IgG2a, IgG2b isotypes)” value ([1]; 50 μg rTcPA45 i.p., day 7)?
A: 3-6 fold

Q: And the “increase in total spleen cell numbers” value ([1]; 50 μg rTcPA45 i.p., day 7)?
A: 2 fold

Q: What about the “increase in spleen cell numbers” value ([1]; 50 μg rTcPA45 in vivo, by day 4) of the same molecule?
A: 2 fold

Q: And the “rTcPA45-specific Ig-secreting B cells” value ([1]; 50 μg rTcPA45 in vivo, day 4)?
A: complete lack

Q: And the “Total Number of Ig-producing B cells ANTI-rTc45MIT: IgG2a-B cells anti 45” value [1, 3]?
A: none

Q: What about the “Total Number of Ig-producing B cells ANTI-rTc45MIT: IgG2b-B cells anti 45” value [1, 3] of the same molecule?
A: none

Q: What about the “Total Number of Ig-producing B cells ANTI-rTc45MIT: IgM-B cells anti 45” value [1, 3] of the same molecule?
A: 84

Q: What about the “Total Number of Ig-producing B cells: IgG2a-producing cells” value [1, 3] of the same molecule?
A: 9866 ± 3000

Q: And the “Total Number of Ig-producing B cells: IgG2b-producing cells” value [1, 3]?
A: 14633 ± 3287

Q: And the “Total Number of Ig-producing B cells: IgM-producing cells” value [1, 3]?
A: 371666 ± 94495
